Among the data in article PMC9519967 are Kd values, retold here.

The test addresses His-tagged Grb3-3 SH2 domain and C-terminal SH3 domain (SH2Δ40CSH3) (human) (UniProt P62993). The test is described as follows: MST.

A word on the Kd: it is the constant that tells how readily two partners part at equilibrium. A high value points to a looser complex.

Regarding “Sos-C-Tail-6 truncated peptide (without GST) (from UniProt Q07889)”, the Kd was 145 µM.

As to “Sos-C-Tail-8 truncated peptide (without GST) (from UniProt Q07889)”, the Kd was 297 µM. Against the preceding substance, the Kd is about 2-fold higher.
